Data from EP2112166B1.

How the values were obtained:
[1] = biological target: CTLA-4-IgG1 fusion protein (made in-house) (human) (UniProt P16410); assay: BIAcore; CTLA-4-Ig on chip, 878.7 RU
[2] = biological target: CTLA-4-IgG1 fusion protein (made in-house) (human) (UniProt P16410); assay: BIAcore; CTLA-4-Ig on chip, 504.5 RU
CTLA-4-Ig(G4) (Repligen) [3] = biological target: CTLA-4-Ig(G4) (Repligen) (UniProt P16410); assay: competition ELISA: CTLA-4-Ig(G4) binding to coated B7.1-Ig(G1)
CTLA-4-Ig(G4) (Repligen) [4] = biological target: CTLA-4-Ig(G4) (Repligen) (UniProt P16410); assay: competition ELISA: CTLA-4-Ig(G4) binding to coated B7.2-Ig(G1)
[5] = biological target: CTLA-4-IgG1 fusion protein (made in-house) (human) (UniProt P16410); assay: BIAcore; CTLA-4-Ig on chip, 457.2 RU

B1: 4.10.2 antibody (antibody, from another filing, human IgG2, V domains shown)
VH: GVVQPGRSLRLSCVASGFIFSSHGIHWVRQAPGKGLEWVAVIWYDGRNKDYADSVKGRFTISRDNSKNTLYLQMNSLRAEDTAVYYCARVAPLGPLDYWGQGTLVTVSS
VL: SPGTLSLSPGERATLSCRASQSISSNFLAWYQQKPGQAPRLLIYRPSSRATGIPDSFSGSGSGTDFTLTISRLEPEDFALYYCQQYGTSPFTFGPGTKVDIKR
[1]
  Ka: 3.9e+09 M⁻¹
  Kd: 0.254 nM
  koff: 0.000253 s⁻¹
  kon: 1e+06 M⁻¹ s⁻¹
[2]
  Ka: 2.2e+09 M⁻¹
  Kd: 0.455 nM
  koff: 0.00043 s⁻¹
  kon: 940000 M⁻¹ s⁻¹
CTLA-4-Ig(G4) (Repligen) [3]
  IC50: 3.39 nM
CTLA-4-Ig(G4) (Repligen) [4]
  IC50: 1.5 nM
[5]
  Ka: 1.4e+09 M⁻¹
  Kd: 0.721 nM
  koff: 0.000505 s⁻¹
  kon: 700000 M⁻¹ s⁻¹
